Results published in the supplement of paper PMC12042874.
± gives the uncertainty stated by the source.

Test: amyloid nucleation score (Sup35N fusion, yeast selection) (log enrichment); library NNK1; higher = more nucleation; inactive = no reads after selection
In short: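 Using DiMSum, nucleation scores were taken as the log enrichment of output over input reads, centred on the mode score of non-aggregating sequences. The input and output reads came from Illumina sequencing of plasmid inserts, with sequences under 100 input reads excluded. The yeast were psi-negative, expressed Sup35N fused to peptides of 20 random codons, were induced with 100 μM copper sulfate for 24 hours, and were grown 7 days at 30°C on medium lacking adenine and uracil.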

Substance	amyloid nucleation score
GNVGYLGVSRYLHLC	-0.073 ± 0.41
GNVRYAPYVVGIKLIRANSC	-0.381 ± 0.81
GPFASVFCAYGRVGVM	0.354 ± 0.68
GPFHRWNL	-0.129 ± 1.6
GPRAN	-1.55 ± 2.7
GPSLWLKTMVKGYAKTGLYR	-0.219 ± 0.32
GPSRRTLRGNFNHLVTYWCP	0.003 ± 0.46
GPTRLDAEG	-0.54 ± 0.87
GRARVSIRSWSRSWSVGRVL	0.309 ± 0.63
GRDSIRCLNTTEASKLYGGL	0.609 ± 0.64
GREANILFLYLVLRTFFRMG	inactive
GRFRARIHCSPQARVTFVAS	-0.113 ± 0.71
GRGSMLFW	0.942 ± 0.58
GRGWYGSRYARVVHFVWGYA	-0.487 ± 0.34
GRLCPLRSKTSFNCY	-1.81 ± 1.3
GRLISETNLAKSYSL	-0.187 ± 0.33
GRMTILSVNSS	0.328 ± 0.46
GRRYELPGPSPYCVRDSGRR	-0.301 ± 0.65
GRVVAHLNRRHR	1.38 ± 0.43
GSELCGVGARSQDSRIAGRV	-0.282 ± 0.49
GSFHTQRTWAFVVVVEVHGK	0.232 ± 0.41
GSGINVRDITFIL	4.42 ± 0.071
GSHTGEFRYVF	-0.83 ± 0.42
GSLKEMEKHPWKKATTYQYA	1.47 ± 0.23
GSMQQNSFREMEPRDSTGGA	-0.844 ± 0.94

Substance	amyloid nucleation score
GSNIGQSFWYRRWVQQRTAE	-1.13 ± 2.7
GSNPVVSLW	0.076 ± 0.44
GSQSEVVCGW	1.14 ± 0.74
GSRSHRSH	0.751 ± 0.67
GSSKNFH	0.972 ± 0.43
GSSLTPCFEWMIIRCVEEDG	1.05 ± 0.79
GSTSCK	0.79 ± 0.43
GSVAKRPVVKISRHPLCMVW	0.364 ± 0.24
GSYECFHHLYCGWQSLLWAN	0.854 ± 0.39
GTHEVLCNDHPCVYRHILRC	-0.753 ± 0.3
GTLNMIFRFGMHAIVSYFWG	0.024 ± 0.4
GTLYWLHASV	0.617 ± 0.47
GTSKTTGERDWLRPMTRDI	-0.94 ± 2.7
GTSSGLV	0.104 ± 1.1
GTSVN	1.08 ± 0.17
GTTHRDS	-0.263 ± 0.35
GTVPNVRKYPCFLCSMRR	-1.28 ± 1.4
GTVYWIYGGINLSAVLSSRS	3.44 ± 0.1
GTWNF	-0.023 ± 0.55
GVAMCEEWRLMISE	0.185 ± 0.74
GVASNYPNHLVLNSR	-0.211 ± 0.34
GVATPPLRANSLEG	inactive
GVDRVQCVFLSRVEWLGTPG	0.198 ± 0.67
GVESLLCYASPLVSWAIFAD	-0.424 ± 0.28
GVFEPCRVRSFMHIVSIADR	-0.306 ± 1.7

Substance	amyloid nucleation score
GVGNTRQRVFRVVHCLAMLQ	0.634 ± 0.88
GVIYS	0.077 ± 0.28
GVLILCVSAKSRSAAVKQLS	0.755 ± 0.68
GVLLGVTSFEFFMGTLEVAW	0.188 ± 1
GVMSTDPFLTLYTVLVGVLI	inactive
GVTSR	1.25 ± 0.72
GWCNMGGANVWKMQVTGPAE	0.948 ± 0.58
GWCYSDVVMLPF	-0.141 ± 0.34
GWGLA	inactive
GWMYVSMLFGVG	-0.455 ± 1.7
GWSIMVGQMASLLWCIRAGT	0.116 ± 0.3
GYEVKMHYSVLIINNSCPCL	0.95 ± 0.25
GYFDMFTKIVVL	0.856 ± 0.45
GYFYFRQIIQSDRPFIYNIP	-0.16 ± 0.38
GYGSHNEAGKLGVGGEVCYG	3.85 ± 0.065
GYKGQCIIYSTVDSRN	0.07 ± 0.35
GYKRFYLLVKLYVFERINIA	-0.244 ± 0.31
GYNNRRDFPLSMPCRH	-0.363 ± 0.88
GYNVAFILHTTVKCVCVEM	0.757 ± 0.41
GYPGCHLFVSWTTVGPVFFY	8.239 ± 0.047
GYRCMHLWTRSPSFIRPVVS	0.67 ± 0.97
GYRCSWNDPMVNTVFFV	0.98 ± 0.56
GYSIDIP	inactive
GYSYTCPLS	-0.217 ± 0.36
GYWPNKRWSRMKPIYPHSNV	1.34 ± 0.18

Substance	amyloid nucleation score
HAHVQCGESE	0.092 ± 0.73
HALTSDRYWKERPTIPRFRF	-0.174 ± 0.36
HAVQLRYLKKKWGWYALCKR	0.712 ± 0.72
HCILHKANFRGFTHSSYEVG	4.68 ± 0.1
HCIWKMLNLFSSLRLSIKLI	-2.16 ± 2.4
HCLSNCSSRVGGFSFNAPVA	0.5 ± 0.45
HCNIMIDSTSLFNGGLVFYN	4.83 ± 0.059
HCNSNVTWKV	0.414 ± 0.63
HCQVQHLTQFMWVIVMRTRD	3.5 ± 0.14
HCVRQTSWMLAENLAWEVWL	1.1 ± 0.58
HCYRITYKRSNRDVL	1.76 ± 0.36
HDFRFIGSWHLTYGPSVTTT	-0.471 ± 0.49
HDICTLWILSAL	0.602 ± 0.78
HDSNHFLRDLLVILRYYEAV	inactive
HEKVV	0.292 ± 0.32
HFGWNLGPMHTMKSSV	0.464 ± 0.49
HFICKLND	0.354 ± 0.34
HFKAYAFLDPFPLAPKL	0.463 ± 0.64
HFMWAYRCSDYDLM	2.01 ± 0.11
HFQKYKELVVSKHN	0.743 ± 1.1
HFTIKF	1.06 ± 0.27
HFYSRYRTPQTRS	-0.549 ± 0.64
HGALMNNWDLKACFC	-0.786 ± 0.41
HGAMLSSM	-2.06 ± 2.4
HGFNPNWGSRVKGSMVRV	-0.044 ± 0.47

Substance	amyloid nucleation score
HGLNVTLDVHGESYLHIYVW	-0.036 ± 0.62
HGNYTHQMTPAELFLRHMRF	-0.991 ± 2.4
HHRVCSMKWSNCYELNVMGE	-0.429 ± 0.28
HHSVGSYRINCLV	3.39 ± 0.089
HHVAVSLDANLNFFTLWLER	3.81 ± 0.12
HIFCRVIPLHMYKLADNW	0.841 ± 0.8
HIQRYMWKGGLEFVLIVRRA	1.2 ± 0.4
HIYNDSVRSFWIFQ	6.606 ± 0.05
HIYSF	1.26 ± 0.12
HKHRKPSLNRVPGVGW	-0.78 ± 0.43
HKNLQIVTFFVEYVSETPPG	-1.05 ± 1
HLECFRLRLPFTNCDVYVRS	0.845 ± 0.54
HLGSNFKISAGAINVRLSHR	4.76 ± 0.1
HLHLGCWW	3.31 ± 0.14
HLKGHFEGWGLIICVSSGFD	2.08 ± 0.14
HLLALFTSFVTITPW	-0.986 ± 0.88
HLSVMMGFGFRTFNMIVMVC	1.05 ± 0.26
HLWHSGPFVRMCCATFIFLA	0.49 ± 0.75
HLYTVTHGSLNDKTGRP	0.31 ± 0.97
HMADTRVADCSQLLR	0.409 ± 0.81
HMWYFRYGHEWSRTYNKCIK	-0.02 ± 0.72
HNKCSFLYMSQYARHRMYSS	0.218 ± 0.5
HNLLM	inactive
HNSHRWYMGGTNVGVSCI	0.456 ± 0.93
HNSRWTRFRHLCSYITYGGC	-0.396 ± 0.58

Substance	amyloid nucleation score
HPHVMLGILGHN	0.752 ± 0.85
HPIGSDSPHSVFMVSCVSLQ	1.68 ± 0.28
HPLRLYRKSISINVVLSSCL	0.733 ± 0.88
HQTCCLWSTVVLGV	3.04 ± 0.15
HQVVNNGTWGEQYIWMLSAC	0.442 ± 0.46
HRFSCG	inactive
HRISASTLCVIMALRFTSWR	1.42 ± 0.44
HRKTSPISENQVY	-0.59 ± 0.27
HRPDIHFVVPVTAP	-0.619 ± 0.4
HRQTNKGEHIQDHAAMLVFR	-0.18 ± 0.63
HRSCCNKRRRERNFSDWTGV	0.542 ± 0.77
HRWTLMEVYITGIALKYVVY	-0.58 ± 0.76
HSGQYCSAHPGFVK	-0.49 ± 0.5
HSMLI	0.539 ± 0.61
HSSNAAFCYAVTIYLQVLLV	0.837 ± 0.66
HSSPLGLLWGAPARRRYCRR	-0.32 ± 0.87
HSTCLPNTIQTLRRRALSCR	-1.22 ± 1.9
HSVLVVSVVHCGFKQKRNK	3.98 ± 0.15
HSVVLILCLAL	0.057 ± 1.2
HSVYL	1.24 ± 0.3
HTKDSGSVARCVVSNLSCNT	1.09 ± 0.48
HTRIADGPAC	0.018 ± 0.21
HTRNVKTLRVKHSIDVPFLP	1.41 ± 0.74
HTRRTEFHAGYYRINTAYAV	0.268 ± 0.7
HTSFGVCVSVICFVLRWAYH	inactive

Substance	amyloid nucleation score
HTWMSLRGVAFTCQ	-0.13 ± 0.3
HTWNPDYVAECFKEFKRLYK	0.393 ± 0.61
HVDDIWWTTFMYFPRCHLHV	0.858 ± 0.57
HVDKFLG	-0.025 ± 0.6
HVMTFEVSFRTGCKDVINWV	1.03 ± 0.18
HVQIILYLSFKTRRLVDLCL	inactive
HVSAWWLTSNV	-0.205 ± 0.37
HWLSAMIGVPEHGH	-0.121 ± 0.33
HWLTV	-1.27 ± 1.6
HWSSSS	-0.745 ± 0.66
HWVGFLRYTSIKDDHQFGSK	-0.323 ± 0.51
HYGVDEAFGRWDGVLMCQKV	-0.134 ± 0.4
HYLISSCWIIRSGWADGTGR	1.01 ± 0.15
HYSHAWTVSRLMWNRDERGA	1.59 ± 0.2
HYTFKDCSSPLSWEPQPLFP	-0.32 ± 0.83
HYYVLCFRVHLGQ	0.176 ± 1.1
IALSTYCRNTDSPSSSGSCY	-0.245 ± 0.77
IAMLSCQRWMCQQTVTSKF	-1.29 ± 0.77
IANGHKSSRCMQKDSSTS	0.586 ± 0.35
IASFKWGFLMDYNLYVSSSG	0.261 ± 0.38
IAWFYRGPIKLLRLYIGGIW	-0.042 ± 0.73
ICDRAWRCFKTKSTQPVTVS	-0.19 ± 0.36
ICGTCCMPNLFVHHYIFLSP	6.708 ± 0.063
ICIYNSGIGLTGVRVWVQGL	inactive
ICKFDLALKFRGRYTEAEWC	1 ± 0.32
